Assay results from USRE47150 (Bayer, dated 2018).
Residue numbers refer to the chain shown, from its start. Numbers in names are those of the source.

T1: mouse tissue factor pathway inhibitor (TFPI) (mouse, UniProt O54819 29-289, limits assumed)
T1 construct: bought; also called mTFPI; murine TFPI
T1 sequence (looked up): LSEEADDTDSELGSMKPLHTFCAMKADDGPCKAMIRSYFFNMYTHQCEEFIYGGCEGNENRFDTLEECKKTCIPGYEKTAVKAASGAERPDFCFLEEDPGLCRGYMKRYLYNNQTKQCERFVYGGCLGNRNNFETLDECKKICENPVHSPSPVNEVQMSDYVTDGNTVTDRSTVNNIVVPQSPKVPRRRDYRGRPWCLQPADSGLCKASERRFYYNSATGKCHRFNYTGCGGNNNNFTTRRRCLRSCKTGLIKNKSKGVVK

T2: human tissue factor pathway inhibitor (TFPI) (human, UniProt P10646 29-304, limits assumed)
T2 construct: bought; also called hTFPI; human TFPI
T2 sequence (looked up): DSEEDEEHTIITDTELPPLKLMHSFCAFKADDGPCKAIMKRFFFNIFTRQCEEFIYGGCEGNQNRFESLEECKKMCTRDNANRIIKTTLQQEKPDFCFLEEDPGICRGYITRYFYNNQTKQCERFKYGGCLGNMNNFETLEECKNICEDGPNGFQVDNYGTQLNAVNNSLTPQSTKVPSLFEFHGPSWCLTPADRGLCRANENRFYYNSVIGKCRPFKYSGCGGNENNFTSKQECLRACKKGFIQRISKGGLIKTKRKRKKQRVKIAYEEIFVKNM

B1: 2A8 HC S31V+S54F+K99L/LC N51V (Fab, V domains shown)
VH: QVQLVESGGGLVQPGGSLRLSCAASGFTFRVYGMSWVRQAPGKGLEWVSSIRGFSSSTYYADSVKGRFTISRDNSKNTLYLQMNSLRAEDTAVYYCARLYRYWFDYWGQGTLVTVSS
VL: DIELTQPPSVSVAPGQTARISCSGDNLRNYYAHWYQQKPGQAPVVVIYYDVNRPSGIPERFSGSNSGNTATLTISGTQAEDEADYYCQSWDDGVPVFGGGTKLTVLG
B2: 2A8 HC S35D+S55R+K99L/LC D1S+I2Y+A13S+S21T+R28P+N29K+Y48F+N51V+E80M+S89A+D91W+D92S+G93S+V94T (Fab, V domains shown)
VH: B1 VH with V31S, S35D, F54S, S55R
VL: SYELTQPPSVSVSPGQTARITCSGDNLPKYYAHWYQQKPGQAPVVVIFYDVNRPSGIPERFSGSNSGNTATLTISGTQAMDEADYYCQAWWSSTPVFGGGTKLTVLG
B3: 2A8 HC S35D+S50A+S55R+K99L/LC Y48F+N51V+D91W (Fab, V domains shown)
VH: B1 VH with V31S, S35D, S50A, F54S, S55R
VL: B1 VL with Y48F, D91W
B4: 2A8 HC S35D+S54F+S55R+K99L/LC D91L+V96W (Fab, V domains shown)
VH: B1 VH with V31S, S35D, S55R
VL: B1 VL with V51N, D91L, V96W
B5: 2A8 HC S35D+S56G+K99L/LC Y48F+D91L+V96W (Fab, V domains shown)
VH: B1 VH with V31S, S35D, F54S, S56G
VL: B1 VL with Y48F, V51N, D91L, V96W
B6: 2A8 HC S35D+S55R+K99L/LC N29K+Y48F+N51V+D91W (Fab, V domains shown)
VH: B1 VH with V31S, S35D, F54S, S55R
VL: B1 VL with N29K, Y48F, D91W
B7: 2A8 HC S35D+K99L/LC Y48F+D91L+V94T+V96W (Fab, V domains shown)
VH: B1 VH with V31S, S35D, F54S
VL: B1 VL with Y48F, V51N, D91L, V94T, V96W
B8: 2A8 HC S35D+S55R+K99L/LC S21T+Y48F+N51V+D91W (Fab, V domains shown)
VH: B1 VH with V31S, S35D, F54S, S55R
VL: B1 VL with S21T, Y48F, D91W
B9: 2A8 HC S35L+S54F+K99V/LC Y48F+D91K (Fab, V domains shown)
VH: B1 VH with V31S, S35L, L99V
VL: B1 VL with Y48F, V51N, D91K
B10: 2A8 HC S35D+S55R+K99L/LC R28P+Y48F+N51V+D91W (Fab, V domains shown)
VH: B1 VH with V31S, S35D, F54S, S55R
VL: B1 VL with R28P, Y48F, D91W
B11: 2A8 HC S35D+R52S+K99L/LC Y48F+D91L+V96W (Fab, V domains shown)
VH: B1 VH with V31S, S35D, R52S, F54S
VL: B1 VL with Y48F, V51N, D91L, V96W
B12: 2A8 HC S35D+K99L/LC D91L+V96W (Fab, V domains shown)
VH: B1 VH with V31S, S35D, F54S
VL: B1 VL with V51N, D91L, V96W
B13: 2A8 HC S35D+K99L/LC Y48F+D91L+P95V+V96W (Fab, V domains shown)
VH: B1 VH with V31S, S35D, F54S
VL: B1 VL with Y48F, V51N, D91L, P95V, V96W
B14: 2A8 HC S35D+K99L/LC Y48F+D91L+G93S+V96W (Fab, V domains shown)
VH: B1 VH with V31S, S35D, F54S
VL: B1 VL with Y48F, V51N, D91L, G93S, V96W
B15: 2A8 HC S35D+S55R+K99L/LC Y48F+N51V+D91W+V94T (Fab, V domains shown)
VH: B1 VH with V31S, S35D, F54S, S55R
VL: B1 VL with Y48F, D91W, V94T
B16: 2A8 HC S35D+S55R+K99L/LC I2Y+Y48F+N51V+D91W (Fab, V domains shown)
VH: B1 VH with V31S, S35D, F54S, S55R
VL: B1 VL with I2Y, Y48F, D91W
B17: 2A8 HC S35D+S55R+K99L/LC Y48F+N51V+D91W+D92S (Fab, V domains shown)
VH: B1 VH with V31S, S35D, F54S, S55R
VL: B1 VL with Y48F, D91W, D92S
B18: 2A8 HC S35D+S55R+K99L/LC Y48F+N51V+E80M+D91W (Fab, V domains shown)
VH: B1 VH with V31S, S35D, F54S, S55R
VL: B1 VL with Y48F, E80M, D91W
B19: 2A8 HC S35D+K99L/LC Y48F+D91L+D92S+V96W (Fab, V domains shown)
VH: B1 VH with V31S, S35D, F54S
VL: B1 VL with Y48F, V51N, D91L, D92S, V96W
B20: 2A8 HC S35D+S55R+K99L/LC Y48F+N51V+D91W+G93S (Fab, V domains shown)
VH: B1 VH with V31S, S35D, F54S, S55R
VL: B1 VL with Y48F, D91W, G93S
B21: 2A8 HC S35D+S55R+K99L/LC A13S+Y48F+N51V+D91W (Fab, V domains shown)
VH: B1 VH with V31S, S35D, F54S, S55R
VL: B1 VL with A13S, Y48F, D91W
B22: 2A8 HC S35D+K99L/LC Y48F+N51S+D91L+V96W (Fab, V domains shown)
VH: B1 VH with V31S, S35D, F54S
VL: B1 VL with Y48F, V51S, D91L, V96W
B23: 2A8 HC S35D+R52S+S55R+K99L/LC Y48F+N51V+D91W (Fab, V domains shown)
VH: B1 VH with V31S, S35D, R52S, F54S, S55R
VL: B1 VL with Y48F, D91W
B24: 2A8 HC S35D+S50A+K99L/LC Y48F+D91L+V96W (Fab, V domains shown)
VH: B1 VH with V31S, S35D, S50A, F54S
VL: B1 VL with Y48F, V51N, D91L, V96W
B25: 2A8 HC S35D+S55G+K99L/LC Y48F+D91L+V96W (Fab, V domains shown)
VH: B1 VH with V31S, S35D, F54S, S55G
VL: B1 VL with Y48F, V51N, D91L, V96W
B26: 2A8 HC S35D+S55R+K99L/LC N26A+Y48F+N51V+D91W (Fab, V domains shown)
VH: B1 VH with V31S, S35D, F54S, S55R
VL: B1 VL with N26A, Y48F, D91W
B27: 2A8 HC S35D+I51E+S55R+K99L/LC Y48F+N51V+D91L+V96W (Fab, V domains shown)
VH: B1 VH with V31S, S35D, I51E, F54S, S55R
VL: B1 VL with Y48F, D91L, V96W
B28: 2A8 HC S35D+S55R+K99L/LC Y48F+N51V+S89A+D91W (Fab, V domains shown)
VH: B1 VH with V31S, S35D, F54S, S55R
VL: B1 VL with Y48F, S89A, D91W
B29: 2A8 HC S35D+I51D+S55R+K99V/LC Y48F+N51V (Fab, V domains shown)
VH: B1 VH with V31S, S35D, I51D, F54S, S55R, L99V
VL: B1 VL with Y48F
B30: 2A8 HC S35D+I51D+K99L/LC Y48F+D91W (Fab, V domains shown)
VH: B1 VH with V31S, S35D, I51D, F54S
VL: B1 VL with Y48F, V51N, D91W
B31: 2A8 HC S35D+S55R+K99L/LC D1S+Y48F+N51V+D91W (Fab, V domains shown)
VH: B1 VH with V31S, S35D, F54S, S55R
VL: B1 VL with D1S, Y48F, D91W
B32: 2A8 HC S35D+S55R+S56G+K99L/LC Y48F+N51V+D91W (Fab, V domains shown)
VH: B1 VH with V31S, S35D, F54S, S55R, S56G
VL: B1 VL with Y48F, D91W
B33: 2A8 HC S35D+S55R+K99L/LC H33Y+Y48F+N51V+D91W (Fab, V domains shown)
VH: B1 VH with V31S, S35D, F54S, S55R
VL: B1 VL with H33Y, Y48F, D91W
B34: 2A8 HC S35D+S55R+K99L/LC Y48F+N51V+S89A+D91W+D92S+G93S+V94T+P95A (Fab, V domains shown)
VH: B1 VH with V31S, S35D, F54S, S55R
VL: B1 VL with Y48F, S89A, D91W, D92S, G93S, V94T, P95A
B35: 2A8 HC S35D+S55R+K99L/LC Y48F+N51V+D91W+P95V (Fab, V domains shown)
VH: B1 VH with V31S, S35D, F54S, S55R
VL: B1 VL with Y48F, D91W, P95V
B36: 2A8 HC S35D+K99L/LC Y48F+S89A+D91L+V96W (Fab, V domains shown)
VH: B1 VH with V31S, S35D, F54S
VL: B1 VL with Y48F, V51N, S89A, D91L, V96W
B37: 2A8 HC S35D+K99L/LC unchanged (Fab, V domains shown)
VH: B1 VH with V31S, S35D, F54S
VL: B1 VL with V51N

target: T1, mouse tissue factor pathway inhibitor …; assay: competitive ELISA

Row | Binder | variant/HC_K99L [ratio]
1 | B1 | 15.7
2 | B2 | 16.8
3 | B3 | 12.6
4 | B4 | 12.1
5 | B5 | 16.9
6 | B6 | 18.9
7 | B7 | 19.3
8 | B8 | 18.8
9 | B9 | 3.1
10 | B10 | 23.2
11 | B11 | 3
12 | B12 | 5.4
13 | B13 | 13.6
14 | B14 | 15.6
15 | B15 | 19.9
16 | B16 | 19
17 | B17 | 22.8
18 | B18 | 21.2
19 | B19 | 20.5

Row | Binder | variant/HC_K99L [ratio]
20 | B20 | 16.5
21 | B21 | 19.9
22 | B22 | 20.3
23 | B23 | 7.9
24 | B24 | 4.6
25 | B25 | 18.2
26 | B26 | 4.1
27 | B27 | 8
28 | B28 | 18.2
29 | B29 | 2.7
30 | B30 | 0.2
31 | B31 | 22
32 | B32 | 18.7
33 | B33 | 11.2
34 | B34 | 9
35 | B35 | 13.7
36 | B36 | 6.1
37 | B37 | 4.5

target: T2, human tissue factor pathway inhibitor …; assay: competitive ELISA

Row | Binder | variant/HC_K99L [ratio]
38 | B1 | 16.3
39 | B2 | 21.4
40 | B3 | 10.9
41 | B4 | 14.9
42 | B5 | 17.8
43 | B6 | 20
44 | B7 | 18.6
45 | B8 | 19.5
46 | B9 | 5
47 | B10 | 22
48 | B11 | 3.9
49 | B12 | 7.1
50 | B13 | 10.2
51 | B14 | 14.2
52 | B15 | 22.8
53 | B16 | 18.7
54 | B17 | 23.9
55 | B18 | 23.1
56 | B19 | 20.7

Row | Binder | variant/HC_K99L [ratio]
57 | B20 | 17
58 | B21 | 20.1
59 | B22 | 19.9
60 | B23 | 10.1
61 | B24 | 4
62 | B25 | 18.1
63 | B26 | 4.1
64 | B27 | 10.4
65 | B28 | 18.6
66 | B29 | 8
67 | B30 | 0.8
68 | B31 | 21.9
69 | B32 | 21.4
70 | B33 | 14
71 | B34 | 10.9
72 | B35 | 15.7
73 | B36 | 4.4
74 | B37 | 3.9
